Experimental data from US20220106391A1 (ZOETIS SERVICES, published 2022).
Where a chain is given by its changes, count along the chain named.

How the values were obtained:
[1] = target: T1, canine beta-NGF (cNGF) (canine, UniProt Q29074 110-229 (pig entry)); assay: SPR (Biacore), KD column of Table 3
T1 construct: also called canine NGF; can NGF
T1 chain: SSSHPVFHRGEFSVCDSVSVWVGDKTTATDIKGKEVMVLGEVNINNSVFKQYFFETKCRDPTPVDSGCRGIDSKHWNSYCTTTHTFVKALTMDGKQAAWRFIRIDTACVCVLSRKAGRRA

[2] = target: T1, canine beta-NGF (cNGF); assay: SPR (Biacore)
[3] = target: T1, canine beta-NGF (cNGF); assay: cell-based or functional assay
[4] = target: NGF (species not stated); assay: cell-based or functional assay
[5] = target: rat NGF (rat, UniProt P25427 122-241); assay: cell-based or functional assay
Sequence of rat NGF (P25427 122-241 limits assumed): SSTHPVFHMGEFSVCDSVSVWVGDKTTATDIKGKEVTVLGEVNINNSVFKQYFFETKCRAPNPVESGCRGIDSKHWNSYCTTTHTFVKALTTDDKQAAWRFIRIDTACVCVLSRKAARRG

[6] = target: T1, canine beta-NGF (cNGF); assay: SPR (Biacore), cNGF binding; KD column of Table 7
[7] = target: NGF (species not stated); assay: cell-based or functional assay; remark: listed apart in the source
[8] = target: T2, feline NGF (feline); assay: SPR, Biacore 3000, feline NGF
T2 chain: T1 chain
Procedure: Affinities of selected felinized anti-NGF antibody to feline NGF were measured using SPR (Surface Plasmon Resonance), Biacore 3000. Kinetics of association and dissociation of a felinized mAb with/from feline NGF were measured at different concentrations.

B1: H3AQC23L1A02D9L2 (antibody, V domains shown)
VH: EVQLVESGGDLARPGGSLKLSCVVSGFTLTQYGINWVRQAPGKGLQWVTVIWATGATDYNSALKSRFTVSRDNAMNTVYLQMNSLRVEDTAVYYCARDGWWYATSWYFDVWGQGTLVTVSS
VL: DIVMTQTPLSLSVSPGEPASISCRASQDISNYLNWFRQKPDGTVKLLIYKTNSLQTGVPSRFSGSGSGTDFTLRISRVEADDAGVYYCQQGSTLPRTFGQGT
notes: Caninized IgG
binding result [1]: no binding

B2: H3AQC2301B12L1AL1L3 (ZTS-00103182) (antibody, V domains shown)
VH: B1 VH
VL: DIVMTQTPLSLSVSPGEPASISCKASQDINHYLNWFRQKPDGTVKLLIYYTSRLHSGVPSRFSGSGSGTDFTLRISRVEADDAGVYYCQQGDHFPRTFGQGT
notes: Caninized IgG; 49 as printed runs on into CH1; the VL entry stops at FGQGT; also called ZTS-182; wt 182
Kd [2]: 0.061 nM
IC50 [nM] (TrkA cell based assay) [3]: 1.26 nM
IC50 nM (TF-1 proliferation inhibition, NGF 2.0 ng/ml) [4]: 0.046 nM
IC50 µg/ml (TF-1 proliferation inhibition, NGF 2.0 ng/ml) [4]: 0.00693 µg/mL
IC50 nM (inhibition of neurite outgrowth, PC12 cells, rat NGF 10 ng/ml) [5]: 0.21 nM
IC50 µg/ml (inhibition of neurite outgrowth, PC12 cells, rat NGF 10 ng/ml) [5]: 0.031 µg/mL
Kd [6]: 0.0027 nM

B3: H733KPL (antibody, V domains shown)
VH: DVQLVESGGDLVKPGGSLRLTCVASGFTLTQYGINWVRQAPGKGLQWVAVIWATGATDYNSALKSRFTMSRDNARNTLYLQMNSLKTEDTATYYCARDGWWYATSWYFDVWGQGTLVTVSS
VL: B2 VL with S14T, F36Y, R37L, A83V, Q100P
notes: also called ZTS-082-2E
IC50 (nM) (pERK-1/2, cell line expressing human TrkA) [7]: 1.34 nM
Kd [8]: 0.000458 nM

B4: H1-23K643 (antibody, V domains shown)
VH: B3 VH with K13Q, M69I, R75K, T115A
VL: EIQMTQSPSSLSASPGDRVTITCKASQDINHYLNWYQQKPGKVPKLLIYYTSRLHSGVPSRFSGSGSGTDFTLTISSLEPEDAATYYCQQGDHFPRTFGGGT
notes: also called ZTS-082-2D
IC50 (nM) (pERK-1/2, cell line expressing human TrkA) [7]: 1.48 nM
Kd [8]: 0.177 nM
